T1: human TIGIT, full length, on cells (human, UniProt Q495A1 22-244)
T1 construct: also called hTIGIT; hTIGIT-CHO
T1 sequence: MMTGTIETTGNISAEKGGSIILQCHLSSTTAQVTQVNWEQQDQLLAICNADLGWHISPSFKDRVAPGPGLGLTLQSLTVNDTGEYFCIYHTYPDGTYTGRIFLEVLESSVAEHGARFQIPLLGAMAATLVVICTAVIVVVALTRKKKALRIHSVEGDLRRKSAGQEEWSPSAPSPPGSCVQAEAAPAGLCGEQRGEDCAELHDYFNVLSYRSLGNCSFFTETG

T2: cTIGIT-His (cynomolgus monkey)
T2 construct: also called His-tagged cyno TIGIT protein extracellular domain; soluble cTIGIT-His
T2 chain: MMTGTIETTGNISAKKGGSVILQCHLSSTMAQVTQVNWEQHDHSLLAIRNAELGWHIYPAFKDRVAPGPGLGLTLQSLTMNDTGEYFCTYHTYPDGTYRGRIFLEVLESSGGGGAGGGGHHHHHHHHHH

T3: hTIGIT-His (human)
T3 construct: also called His-tagged human TIGIT protein extracellular domain; soluble hTIGIT-His
T3 chain: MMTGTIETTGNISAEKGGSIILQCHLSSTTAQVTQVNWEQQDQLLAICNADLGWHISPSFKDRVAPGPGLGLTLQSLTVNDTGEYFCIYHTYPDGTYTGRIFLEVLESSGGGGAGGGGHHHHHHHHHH


Tests used:
[1] = target: T4, cynomolgus monkey TIGIT, full length, on cells (cynomolgus monkey); assay: flow cytometry on CHO-K1 cells expressing cyno TIGIT
T4 construct: Whole entry of 312 amino acids; also called cyno TIGIT; cTIGIT
Description: (§1) These clones were further expanded, and antibodies were purified using a Protein G column. These purified antibodies were tested for binding to human and cyno TIGIT expressed on cell surface by flow cytometry. Stable CHO-K1 cell lines expressing full length human TIGIT clone 2A7 (Swiss-Prot Q495A1; SEQ ID NO: 80) or full length cyno TIGIT clone C10 (Swiss-Prot A0A2K5UW92; SEQ ID NO: 84) were developed. For the flow assay, cells were collected and incubated in 100 μL of HBSS buffer in the presence (or absence) of various concentrations of antibodies for 1 hr at 4° C. After washing with HBSS, antibody binding on cells was detected with 2 μg/mL of Alexa488-labeled goat anti-mouse IgG antibody (ThermoFisher Scientific, Cat #A-11001) for 30 min at 4° C. Cells were then washed and resuspended in PBS and subjected to flow cytometry using an Attune NxT flow cytometer (ThermoFisher Scientific, Waltham, Mass.). The geometric mean of the fluorescence intensity was obtained for the whole single cell population. Antibodies capable of binding to both human and cyno TIGIT expressed on cell surface were further tested for their blocking activity against recombinant human CD155 binding to human TIGIT on the surface of CHO cells. CHO-hTIGIT cells (10⁵ cells) were incubated with 2.5 μg/mL hCD155-Fc protein in the presence of various concentrations of antibody at room temperature for 1 hr. […] Cells were then washed and subjected to flow cytometry analysis.

[2] = target: T1, human TIGIT, full length, on cells; assay: flow cytometry on CHO-K1 cells expressing human TIGIT
Description: as §1

[3] = target: T1, human TIGIT, full length, on cells; assay: flow cytometry, inhibition of hCD155-Fc binding to CHO-hTIGIT cells
Description: as §1

cTIGIT-His = target: T2, cTIGIT-His; assay: SPR, Biacore 8K, Fab-SASA supernatant captured on BSA chip, cTIGIT-His as analyte
Description: (§2) Oligonucleotides were designed and synthesized as Fab fragments with human IgG1/kappa constant domains for the two VH and two VL grafted human acceptors and inserted into a vector system for high throughput screening of expression levels and biophysical properties, without the need for protein purification (Zhang & Hirama, Patent Application Publication US 2012/0178110). All four combinations of VH1 (SEQ ID NO: 76) or VH2 (SEQ ID NO: 78) with VL1 (SEQ ID NO: 79) or VL2 (SEQ ID NO: 77) (FIGS. 1J-1M) were screened along with a chimera Fab mVH+mVL constructed from the mouse 24F8VH (SEQ ID NO: 5) & 24F8VL (SEQ ID NO: 6) domains and human IgG1/kappa Fab constant domains. Supernatants of the Fabs, secreted as a SASA (single-domain antibody against serum albumin) fusion proteins were analyzed by surface plasmon resonance (SPR) using a Biacore 8K instrument with Fab capture using an BSA coated chip and soluble His-tagged TIGIT as the analyte. The kinetic binding data for human and cyno TIGIT are shown in Table 9 for the five Fab fragments.

hTIGIT-His = target: T3, hTIGIT-His; assay: SPR, Biacore 8K, Fab-SASA supernatant captured on BSA chip, hTIGIT-His as analyte
Description: as §2

Row | Binder | EC50 [1] [pM] | EC50 [2] [pM] | IC50 [3] [pM] | Kd (cTIGIT-His) [pM] | koff (cTIGIT-His) [s⁻¹] | kon (cTIGIT-His) [M⁻¹ s⁻¹] | Kd (hTIGIT-His) [pM] | koff (hTIGIT-His) [s⁻¹] | kon (hTIGIT-His) [M⁻¹ s⁻¹]
1 | 22B22 (antibody, V domains shown, Mouse monoclonal antibody purified from hybridoma on Protein G; also called mAb 22B22; mouse anti-TIGIT clone 22B22) VH: EVQLVESGGGLVKPGGSLKLSCAASGFTFSSYAMSWVRQSPEKRLEWVAEISSGGSYTYYPDTVTGRFTISRDNAKNTLYLEMSSLRSEDTAMYYCARKRRDYYAMDYWGQGTSVTVSS VL: DVQITQSPSYLAASPGETITINCRASKSISKYLAWYQEKPGKTNKLLIYSGSTLQSGIPSRFSGSGSGTDFTLTISSLEPEDFAMYYCQQHNEYPWTFGGGTKLEIK | 580 | 507 | 830 |  |  |  |  |  | 
2 | 28P24 (antibody, V domains shown, Mouse monoclonal antibody purified from hybridoma on Protein G; also called mAb 28P24; mouse anti-TIGIT clone 28P24) VH: QVQLQQSGAELVRPGTSVKMSCKAAGYTFTNYFIGWVKQRPGHGLDWIGDIYPGGGYTNYNEKFKGKATLTADTSSSTAYMQLSSLTSEDSAIYYCVRFYGNYVFAYWGQGTLVTVSA VL: DVQITQSPSCLAASPGETITINCRASKTISKYLAWYQEKPGKTNKLLIYSGSTLQSGIPSRFSGSGSGTDFTLTISSLEPEDFAMYYCQQHNEYPWTFGGGTKLEIK | 1260 | 466 | 1700 |  |  |  |  |  | 
3 | 21B16 (antibody, V domains shown, Mouse monoclonal antibody purified from hybridoma on Protein G; also called mAb 21B16; mouse anti-TIGIT clone 21B16) VH: EVQLVESGGGLVKPGGSLKLSCAASGFTFSTYAMSWVRQSPEKRLEWVAEISSGGTYTYFPDTVTGRFTISRDNAKNTLYLEMSSLRSEDTAMYYCARKRRDYYAMDYWGQGTSVTVSS VL: DVQITQSPSYLAASPGETITINCRASKSISKYLAWYQEKPGKTNKLLIYSGSTLQSGIPSRFSGSGSGTDFTLTISSLEPEDFAVYYCQQHNEYPWTFGGGTKLEIK | 1200 | 498 | 1150 |  |  |  |  |  | 

Other lines, results leading:

Row | EC50 [1] [pM] | EC50 [2] [pM] | IC50 [3] [pM] | Kd (cTIGIT-His) [pM] | koff (cTIGIT-His) [s⁻¹] | kon (cTIGIT-His) [M⁻¹ s⁻¹] | Kd (hTIGIT-His) [pM] | koff (hTIGIT-His) [s⁻¹] | kon (hTIGIT-His) [M⁻¹ s⁻¹] | Binder
4 | 631 | 506 | 1660 |  |  |  |  |  |  | 21B9 (antibody, V domains shown, Mouse monoclonal antibody purified from hybridoma on Protein G; also called mAb 21B9; mouse anti-TIGIT clone 21B9) VH: EVQLVESGGGLVKPGGSLKLSCTASGFTFSSYAMSWVRQSPEKRLEWVAEISSGGSYTYYTDTVTGRFTISRDNAKNTLYLEMSSLRSEDTAMYYCARKRRDYYGMDYWGQGTSVTVSS VL: DVQITQSPSYLAASPGETITINCRASKSISKYLAWYQEKPGKTNKLLIYSGSTLQTGIPSRFSGSGSGTDFTLTISSLEPEDFAMYYCQQHNEYPWTFGGGTKLEIK
5 | 710 | 638 | 1160 |  |  |  |  |  |  | 28O12 (antibody, V domains shown, Mouse monoclonal antibody purified from hybridoma on Protein G; also called mAb 28O12; mouse anti-TIGIT clone 28O12) VH: EVQLVESGGGLVKPGGSLKLSCAASGFTFSNYAMSWVRQSPEKRLEWVAEISGGGSYTYHPDTVTGRFTISRDNAKNTLYLEMSSLRSEDTAMYYCARKRRDYYAMDYWGQGTSVTVSS VL: DVQITQSPSYLAASPGETITINCRASKSISKYLAWYQEKPGKTNKLLIYSGSTLQSGIPSRFSGSGSGTDFTLTISSLEPEDFAMYYCQQHNEYPWTFGGGTKLEIK
6 |  |  |  | 474 | 0.000728 | 1.54e+06 | 1.27 | 2.37e-06 | 1.86e+06 | chimera Fab mVH+mVL (mouse 24F8VH and 24F8VL with human IgG1/kappa Fab constant domains) (Fab, V domains shown, also called mouse/human chimera Fab) VH: DVQLQESGPDLVKPSQSLSLTCTVTGYSITSGYSWHWIRQFPGNKLDWMGYVHYSGSTNYNPSLKSRISITRDTSKNQFFLQLNSVTTEDTATFYCARMDYGNYGGAMDYWGQGTSVTVSS VL: EIVMTQSHKFMSTSVGDRVSITCKASQDVRTAVAWYQQKPGQSPKLLIYSASYRYTGVPDRFTGSGSGTDFTFTISSVQAEDLAVYYCQQYYSTQWTFGGGTKLEIK

From patent US20220064294A1 (ARCUS BIOSCIENCES, published 2022)
